Experimental data: patent publication US20030133971

System: recombinant SDI-1 protein

Substance: CDK2 (kinase assays of Example 11)
- phosphorylation of histone H1: The recombinant SDI-1 protein of the present invention inhibits the phosphorylation of histone H1 by CDK2
